The labels stand for the following.
B1: LINE1-full (parent)
chain: UACGUAGGUGGUUUUCCCCUGAUAGUGCUAAGGGGGCCUGGAAGUUUGGACUGGGCAGAGCUCAACACAGCGUGGCAAAGUGGCUGUGGCUAGACUGCCUCUCUGGAUUCCUCGUCACUCAGCAGGGCAUCUCUGAGAGAAAUGCC

Variants of B1 are the subject of this series. Kind of series: self-cleavage, relative activity (ratio to wild type); higher = more cleavage; in vitro, sequencing; the parent is a self-cleaving ribozyme.
On to G41A A78G, for which the self-cleavage was 0.58.

On to G41A A78U, for which the self-cleavage stood at 2.63.

As for U39C G60A, the self-cleavage is 0.02.

Consider G41A U130A, for which the self-cleavage amounted to 1.57.

U39G A79G: the self-cleavage stood at 1.28.

In the case of G40A A107G, the self-cleavage is 1.17.

For G40A G88A, the self-cleavage was 0.04.

Consider U39C U130G, for which the self-cleavage came out at 1.75.

Take U39C U130C: the self-cleavage was determined as 2.49.

Regarding G41C A59G, the self-cleavage worked out at 0.19.

G41U U100G: the self-cleavage is 0.78.

Take A42C A67G: the self-cleavage came out at 0.52.

Regarding U39C U102C, the self-cleavage amounted to 0.99.

As to G40U A67G, the self-cleavage came out at 0.21.

U39G U52A: the self-cleavage was 1.16.

Consider U39C G58U, for which the self-cleavage was 0.03.

With G41A A117G, the self-cleavage amounted to 1.53.

As for G41C U100C, the self-cleavage came out at 2.63.

As for U39C U108A, the self-cleavage was 1.22.

Turning to G41A U134G, the self-cleavage came out at 0.98.

Regarding G41A U134A, the self-cleavage is 0.89.

For G41A U134C, the self-cleavage stood at 1.15.

Turning to G41C U104G, the self-cleavage is 1.58.

Consider G41U U134C, for which the self-cleavage stood at 1.21.

As to G40A U52C, the self-cleavage was determined as 1.23.

Regarding G40A U52A, the self-cleavage is 1.25.

As for G40U A65G, the self-cleavage was found to be 0.04.

Regarding U39C C110G, the self-cleavage was 0.51.

Regarding U39C G80A, the self-cleavage was 1.06.

For G40A A78G, the self-cleavage came to 0.77.

With G40A, the self-cleavage turned out to be 1.16.

G40U: the self-cleavage stood at 1.

For the variant G40C, the self-cleavage was 1.12.

For the variant G40A U87A, the self-cleavage stood at 0.06.

Consider G41U A129C, for which the self-cleavage stood at 1.02.

As for G41U A129G, the self-cleavage was 1.03.

G40A A136U: the self-cleavage was 1.04.

Consider G40U A43G, for which the self-cleavage is 1.11.

In the case of G40A A129G, the self-cleavage was 1.42.

As to G40A A129U, the self-cleavage was 0.46.

Turning to U39C G127A, the self-cleavage stood at 1.03.

Consider G40A G60U, for which the self-cleavage turned out to be 0.02.

Turning to U39C U47C, the self-cleavage is 1.91.

Turning to G40A U73A, the self-cleavage was 0.81.

With G40U U130C, the self-cleavage was found to be 1.32.

Turning to G41A A138G, the self-cleavage is 1.25.

Regarding G41U C98U, the self-cleavage was 0.12.

As to G40A A65G, the self-cleavage was found to be 0.04.

Turning to U39C G83A, the self-cleavage turned out to be 0.2.

Turning to G40A A117U, the self-cleavage was 1.43.

In the case of G41C U45C, the self-cleavage is 0.68.

With G40U U85G, the self-cleavage stood at 0.28.

Regarding U39C G106U, the self-cleavage was 0.4.

In the case of U39C G106C, the self-cleavage is 0.84.

As to U39C G41A, the self-cleavage is 1.41.

Regarding G40U U108C, the self-cleavage stood at 1.59.

For the variant G41C A138G, the self-cleavage turned out to be 0.97.

On to U39C U134G, for which the self-cleavage was 1.39.

With U39C U134C, the self-cleavage stood at 1.5.

U39C U134A: the self-cleavage worked out at 0.86.

As for G40U U52A, the self-cleavage was 0.99.

Take U39C C76U: the self-cleavage stood at 0.7.

U39G C123A: the self-cleavage worked out at 0.91.

On to U39C C61G, for which the self-cleavage is 0.07.

As to G41U A117U, the self-cleavage worked out at 1.24.

Turning to G40U U132C, the self-cleavage turned out to be 2.4.

G40U U132A: the self-cleavage was determined as 1.31.

For G40A U81A, the self-cleavage was 1.71.

Turning to G40A U143C, the self-cleavage came out at 1.26.

U39G U73A: the self-cleavage is 1.88.

Turning to U39C U62A, the self-cleavage came to 0.04.

For the variant U39C U87A, the self-cleavage worked out at 0.06.

On to U39G U81A, for which the self-cleavage amounted to 1.62.

Regarding U39C U85C, the self-cleavage is 0.18.

With U39C U85A, the self-cleavage is 0.05.

On to G40A A138G, for which the self-cleavage worked out at 1.49.

On to U39G A142G, for which the self-cleavage amounted to 0.77.

As for G40A A50U, the self-cleavage is 0.84.

Take U39G A121G: the self-cleavage is 1.23.

For the variant G41U G127A, the self-cleavage came to 0.69.

As for G41U U132A, the self-cleavage was found to be 1.35.

Consider G40A U85G, for which the self-cleavage is 0.04.

As to U39G U115A, the self-cleavage came out at 1.31.

For G40A A57G, the self-cleavage was 0.4.

For U39C U104G, the self-cleavage stood at 0.93.

As to U39C U104A, the self-cleavage is 0.89.

Take G40A A59U: the self-cleavage came out at 0.54.

Consider G41A U96C, for which the self-cleavage turned out to be 0.11.

For U39G A136G, the self-cleavage was 1.65.

In the case of G40A U62C, the self-cleavage was determined as 0.04.

For U39G U102C, the self-cleavage came out at 1.34.

On to U39C U91C, for which the self-cleavage worked out at 0.33.

Consider G41A C68U, for which the self-cleavage was determined as 0.23.

For the variant U39C A117C, the self-cleavage amounted to 1.84.

G40U U47A: the self-cleavage turned out to be 1.86.

Turning to U39C U115A, the self-cleavage was found to be 1.05.

On to U39C U115C, for which the self-cleavage came to 1.37.

With U39C G54A, the self-cleavage was 0.58.

Take U39C G54U: the self-cleavage amounted to 0.39.

For the variant G41A A43G, the self-cleavage is 0.44.

Take G41A A43C: the self-cleavage was found to be 0.25.

On to U39G U45C, for which the self-cleavage turned out to be 1.82.

With U39C C118A, the self-cleavage amounted to 1.33.

As to U39C A138G, the self-cleavage is 1.29.

For U39C A138U, the self-cleavage came out at 1.29.

Consider U39C G137A, for which the self-cleavage is 1.09.

As to G41U A64G, the self-cleavage is 0.16.

On to U39C U52C, for which the self-cleavage turned out to be 0.37.

Regarding U39C U52A, the self-cleavage amounted to 1.4.

With G41A C95U, the self-cleavage amounted to 0.12.

In the case of G41A U87C, the self-cleavage came out at 0.26.

As to U39G A77G, the self-cleavage stood at 1.53.

For the variant U39G A140G, the self-cleavage amounted to 1.31.

On to U39C U119A, for which the self-cleavage turned out to be 1.08.

As for U39C U119C, the self-cleavage was 1.38.

As to U39C U119G, the self-cleavage turned out to be 1.36.

Take U39C C71U: the self-cleavage is 0.31.

On to U39C U112A, for which the self-cleavage was found to be 1.45.

In the case of G40A U119A, the self-cleavage was 0.94.

Regarding U39C U109A, the self-cleavage came to 1.15.

As for U39C G122U, the self-cleavage stood at 1.53.

For U39C G122A, the self-cleavage turned out to be 1.25.

On to G41A A79U, for which the self-cleavage turned out to be 1.28.

Take G41A A79G: the self-cleavage stood at 1.

For U39G U46C, the self-cleavage was 1.36.

With G40U G139A, the self-cleavage turned out to be 1.17.

In the case of G40A A142G, the self-cleavage is 0.79.

Regarding G40U A117G, the self-cleavage stood at 0.97.

Take U39C U45C: the self-cleavage turned out to be 1.54.

Turning to G40A A141G, the self-cleavage was determined as 1.06.

A42C A92G: the self-cleavage came out at 0.15.

Consider G41A U104C, for which the self-cleavage amounted to 1.53.

Turning to G40A U132C, the self-cleavage is 1.03.

On to U39G A65C, for which the self-cleavage was 0.04.

Turning to U39C C133U, the self-cleavage turned out to be 1.31.

Consider U39C G135A, for which the self-cleavage came out at 1.2.

Turning to G41A U108C, the self-cleavage stood at 1.23.

For U39G U96C, the self-cleavage was found to be 0.11.

In the case of U39G U62C, the self-cleavage is 0.1.

Regarding G41U U73C, the self-cleavage was 2.76.

As to U39C U100C, the self-cleavage was determined as 2.36.

For U39C U100G, the self-cleavage came to 0.59.

Regarding U39C U100A, the self-cleavage worked out at 0.53.

Consider G40A U109C, for which the self-cleavage is 0.88.

For the variant U39C U81C, the self-cleavage is 1.45.

Consider U39C U81A, for which the self-cleavage is 1.44.

Regarding U39C A136G, the self-cleavage was 1.43.

On to U39C A136U, for which the self-cleavage was 1.25.

On to G41U A65G, for which the self-cleavage amounted to 0.03.

G40U A59C: the self-cleavage came to 0.82.

On to G40U A59G, for which the self-cleavage is 0.05.

G40U A79G: the self-cleavage is 1.09.

As for G40U U134C, the self-cleavage is 1.6.

As for U39C C128U, the self-cleavage came to 1.16.

Regarding G41A G60U, the self-cleavage turned out to be 0.04.

For U39C G144A, the self-cleavage is 0.85.

For U39C C113G, the self-cleavage turned out to be 1.71.

With U39C C113A, the self-cleavage was 0.33.

As for U39C U46C, the self-cleavage worked out at 1.56.

In the case of G40U U100C, the self-cleavage was determined as 0.46.

In the case of G40U U100A, the self-cleavage came out at 0.89.

Turning to G40U G58A, the self-cleavage worked out at 0.02.

As to U39C A141U, the self-cleavage came to 2.2.

For G40A U100C, the self-cleavage worked out at 1.59.

With U39C A124G, the self-cleavage was 0.53.

As to G41A U143C, the self-cleavage came to 0.95.

As for G41A U143G, the self-cleavage was 1.11.

The values above are taken from the RNAGym collection of RNA variant scans (doi:10.7554/elife.90254).
